Reference: US20160376333A1 (University of Washington, published 2016)

B2: Epstein-Barr virus BHRF1 a.a. 1-161 with C-terminal avi-6his tag (other)
chain: AYSTREILLALCIRDSRVHGNGTLHPVLELAARETPLRLSPEDTVVLRYHVLLEEIIERNSETFTETWNRFITHTEHVDLDFNSVFLEIFHRGDPSLGRALAWMAWCMHACRTLCCNQSTPYYVVDLSVRGMLEASEGLDGWIHQQGGWSTLIEDNIPGSGLNDIFEAQKIEWHEGSHHHHHH
notes: also called EBV BHRF1; BHRF1-biotin
B7: human Mcl-1 a.a. 172-327 with C-terminal avi-6his tag (other)
chain: GSDELYRQSLEIISRYLREQATGAKDTKPMGRSGATSRKALETLRRVGDGVQRNHETAFQGMLRKLDIKNEDDVKSLSRVMIHVFSDGVTNWGRIVTLISFGAFVAKHLKTINQESCIEPLAESITDVLVRTKRDWLVKQRGWDGFVEFFHVEDLEGGGLNDIFEAQKIEWHEGSHHHHHH

What was measured:
[1] = target: T1, Bim-BH3 motif fused to the C-terminus of maltose-binding protein (MBP) (human, UniProt O43521 141-166); assay: BLI, biotinylated target on streptavidin sensor, MBP-Bim-BH3 in solution
T1 construct: domain: Bim-BH3 motif; also called MBP-Bim-BH3

[2] = target: human Bim-BH3 (a.a. 141-166) displayed on yeast (human, UniProt O43521 141-166); assay: yeast surface display titration (apparent KD)
[3] = target: human Bcl-2 a.a. 1-207 with C-terminal avi-6his tag (human, UniProt P10415 2-207); assay: initial BLI screening (column 'Binds target?')
[4] = target: B7; assay: BLI at a single analyte concentration (50 nM, 600 s association, then buffer); biotinylated BCL2 protein on a streptavidin sensor
[5] = target: B2; assay: yeast display library, FACS sort at 100 nM BHRF1, deep sequencing
[6] = target: B2; assay: yeast display library, FACS sort at 400 nM BHRF1, deep sequencing
[7] = target: B2; assay: yeast surface display; BHRF1 titrated on clonal yeast showing the design, fluorescence by flow cytometry (apparent KD)
[8] = target: B7; assay: yeast surface display titration (apparent KD)

human Bim-BH3 (a.a. 141-166) displayed on yeast, sequence (O43521 141-166 limits assumed): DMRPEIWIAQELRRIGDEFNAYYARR

B1: human Bfl-1 a.a. 1-153 (C4S) with C-terminal avi-6his tag (other)
chain: TDSEFGYIYRLAQDYLQCVLQIPQPGSGPSKTSRVLQNVAFSVQKEVEKNLKSCLDNVNVVSVDTARTLFNQVMEKEFEDGIINWGRIVTIFAFEGILIKKLLRQQIAPDVDTYKEISYFVAEFIMNNTGEWIRQNGGWENGFVKKFEPKSGGLNDIFEAQKIEWHEGSHHHHHH
notes: also called A1/Bfl-1
Kd [1]: 0.61 nM | Kd [2]: 2.1 nM

B2
Kd [1]: 7 nM | Kd [2]: 12 nM

B3: 2-CDP01 (designed binder)
chain: ADPKKVLDKAKDQAENVVRKLKQELEELYKEARKLDLTQDMREKIKLRAEAAELQAIGDIFQAILQAKMEAKKLYDAGLVNSQQLDELKRRLEELAKEAEDRAAKLGKEFLQKLEYG
binding result [3]: binds

B4: M-CDP01 (designed binder)
chain: ADPKKVLDKAKDQAENRVRELKQELEELYKKARKLDLTQEERRKLEEEAIAALLRAIGDIYNAIQQALNEADKLKKAGLVNSQQLDELKRRLEELKKEASKKARDYGLEFFEKLDY
binding result [4]: binds

B5: Index 02 (designed binder)
chain: GKSLLGIALEALEEAKRDLEKAKKQMEEMLKKKWKFDTTRDLKARASAEWIAAALKAIGDRFNAKLLIELGLDELFNKGLITQDIKEDIKRRAEEIFEKIERLIKQAIKDKDRFEKLG
Log2 enrichment ratio [5]: 3.92 log2 | Log2 enrichment ratio [6]: 3.43 log2 | Kd [7]: 110 nM

B6: BbpD04 (designed binder)
chain: ADWKKVLDKAKDIAENRVREIKQKLEEFYKKAMKLDLTQEMRRKLMLEWIAAMLMAIGDIFNAIEQAKQEADKLKKAGQVNSQLLDELKRRLEELKEEASRKCHDYGREFQLKLEY
Kd [8]: 17 nM

B7
Kd [1]: 0.17 nM | Kd [2]: 0.6 nM

B8: Index 03 (designed binder)
chain: GLDHDKIVDEARKKMEKKIREAKDKAKEFVLKALDNNHDLKQFRELAHKWIALMLMAIGDAFNIMMEAKRKAEWLREQGQQDEDKAEEAKEKLDKAFKEAAERFEEIAKIYGKQAKNG
Log2 enrichment ratio [5]: 2.52 log2 | Log2 enrichment ratio [6]: 3.17 log2 | Kd [7]: 160 nM

B9: Index 04 (designed binder)
chain: GLLAEEGREQAEERLREARKKAEKAGDKIKDLAKYGQDSDDEKKKFMLKWIAAQLMVIGDMFNHAMEALWELLRRLKNNKISWDAFLKAKEEIEREEKEAARDSREKGREAAKMIDQG
Log2 enrichment ratio [5]: 2.11 log2 | Log2 enrichment ratio [6]: 1.96 log2 | Kd [7]: 44 nM

B10: human Bcl-w a.a. 1-182 with C-terminal avi-6his tag (other)
chain: MATPASAPDTRALVADFVGYKLRQKGYVCGAGPGEGPAADPLHQAMRAAGDEFETRFRRTFSDLAAQLHVTPGSAQQRFTQVSDELFQGGPNWGRLVAFFVFGAALCAESVNKEMEPLVGQVQEWMVAYLETQLADWIHSSGGWAEFTALYGDGALEEARRLREGNWASVRTVLTGAVALGAGLNDIFEAQKIEWHEGSHHHHHH
notes: range 1-182; also called BCL2L2
Kd [1]: 20 nM | Kd [2]: 2.1 nM

B11: M-CDP05 (designed binder)
chain: ADPKKVLDKAKDQAENRVRELKQKLEELYKEARKLDLTQEERHRLETKALSALLAAIGDILDAIMQALQEAAKLKKAGLVNSQQLDELKRRLEELRKEASRKARDYGREFWLKLDY
binding result [4]: binds
